Biological target: the molecule itself
Test: cryo-EM structure

B1: Rsph16 (natural protein, mouse, UniProt Q80Y75 1-316, looked up)
chain: MGLDYYAVLQVTRNSEDAQIKKAYRKLALKNHPLKSSEPGAPEIFKQIAEAYDVLSDPVKRGIYDKFGEEGLKGGIPLEFGSQTPWTTGYVFHGNPDKVFHEFFGGDNPFSEFFDAEGNDIDLNFGGLWGRGVQKQDPPIERDLYLSLEDLFFGCTKKIKISRRVLNEDRYSSTIKDKILTIDVRPGWRQGTRITFEKEGDQGPNIIPADIIFIVKEKLHPRFRREHDNLFFVYPIPLGKALTCCTVEVKTLDDRLLNIPINDIVHPKYFKIVPGEGMPLPENPSKKGDLFIFFDIQFPTRLTPQKKQMLRQALLT
stoichiometry N: 2
